From IntAct's records for PubMed 25278935

B1: Serine/threonine-protein kinase RsbT (Bacillus subtilis), P42411 (parent)
chain: MNDQSCVRIMTEWDIVAARQLGRNVAKELGFGTVDQARITTAISELARNIYLYAGKGQIGIEQVADRGKKGLKIIAEDQGPGIPDIRKVMEDGFSTSGGLGAGLPGVKRLMDEFSLNSVAGEGTEIQAIKWLR
partner: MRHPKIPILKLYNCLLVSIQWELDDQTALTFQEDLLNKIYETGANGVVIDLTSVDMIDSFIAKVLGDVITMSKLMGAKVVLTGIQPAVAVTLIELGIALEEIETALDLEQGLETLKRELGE
B2: Anti-sigma F factor (Bacillus subtilis), P10728 (parent)
chain: MKNEMHLEFSALSQNESFARVTVASFIAQLDPTMDELTEIKTVVSEAVTNAIIHGYEENCEGKVYISVTLEDHVVYMTIRDEGLGITDLEEARQPLFTTKPELERSGMGFTIMENFMDDVSIDSSPEMGTTIRLTKHLSKSKALCN
partner: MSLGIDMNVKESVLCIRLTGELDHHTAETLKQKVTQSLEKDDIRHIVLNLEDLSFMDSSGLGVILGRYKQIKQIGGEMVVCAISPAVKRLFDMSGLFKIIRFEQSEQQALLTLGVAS
B3: HPr kinase/phosphorylase (Bacillus subtilis), O34483 (parent)
chain: MAKVRTKDVMEQFNLELISGEEGINRPITMSDLSRPGIEIAGYFTYYPRERVQLLGKTELSFFEQLPEEEKKQRMDSLCTDVTPAIILSRDMPIPQELIDASEKNGVPVLRSPLKTTRLSSRLTNFLESRLAPTTAIHGVLVDIYGVGVLITGKSGVGKSETALELVKRGHRLVADDCVEIRQEDQDTLVGNAPELIEHLLEIRGLGIINVMTLFGAGAVRSNKRITIVMNLELWEQGKQYDRLGLEEETMKIIDTEITKLTIPVRPGRNLAVIIEVAAMNFRLKRMGLNAAEQFTNKLADVIEDGEQEE
partner: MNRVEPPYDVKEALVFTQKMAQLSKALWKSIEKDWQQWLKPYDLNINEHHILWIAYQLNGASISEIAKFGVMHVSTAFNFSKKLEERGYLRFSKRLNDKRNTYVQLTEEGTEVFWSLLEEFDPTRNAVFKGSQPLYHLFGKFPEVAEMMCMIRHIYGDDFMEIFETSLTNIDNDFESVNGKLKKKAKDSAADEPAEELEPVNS
B4: Tyrosine-protein kinase YwqD (Bacillus subtilis), P96716 (parent)
chain: MALRKNRGSRMQRNVIAMTEPKSLNSEQYRTIRTNIEFASVDRQMKSVMITSACPGEGKSTTAANLAVVFAQQGKKVLLIDADLRKPTVHTAFFLENTVGLTSVLLKKSSMEQAVQASNEKHLDVLTSGPIPPNPAELLSSKWMKELAYEACAAYDMVIFDTPPILAVADAQILGNVADGSVLVISSGKTEKEQAAKAKEALATCKSKLLGAIMNGKKLSKHSEYGYYGTKDNFMQK
partner: B1 chain

Variants of: B1
Conditions: with rsbs_bacsu rsbS

Row | Variant | effect of a mutation on the interaction
1 | MNDQSCVRIMTEWDIVAARQLGRNVAKELGFGTVDQARITTAISELARAIYLYAGKGQIGIEQVADRGKKGLKIIAEDQGPGIPDIRKVMEDGFSTSGGLGAGLPGVKRLMDEFSLNSVAGEGTEIQAIKWLR [N49A] | disrupting interaction strength

Variants of: B2
Conditions: with sp2aa_bacsu spoIIAA

Row | Variant | effect of a mutation on the interaction
2 | MKNEMHLEFSALSQNESFARVTVASFIAQLDPTMDELTEIKTVVSEAVTAAIIHGYEENCEGKVYISVTLEDHVVYMTIRDEGLGITDLEEARQPLFTTKPELERSGMGFTIMENFMDDVSIDSSPEMGTTIRLTKHLSKSKALCN [N50A] | disrupting interaction strength

Variants of: B3
Conditions: with hpr_bacsu hpr

Row | Variant | effect of a mutation on the interaction
3 | MAKVRTKDVMEQFNLELISGEEGINRPITMSDLSRPGIEIAGYFTYYPRERVMLLGKTELSFFEQLPEEEKKQRMDSLCTDVTPAIILSRDMPIPQELIDASEKNGVPVLRSPLKTTRLSSRLTNFLESRLAPTTAIHGVLVDIYGVGVLITGKSGVGKSETALELVKRGHRLVADDCVEIRQEDQDTLVGNAPELIEHLLEIRGLGIINVMTLFGAGAVRSNKRITIVMNLELWEQGKQYDRLGLEEETMKIIDTEITKLTIPVRPGRNLAVIIEVAAMNFRLKRMGLNAAEQFTNKLADVIEDGEQEE [Q53M] | disrupting interaction strength

Variants of: B4
Conditions: with rsbt_bacsu rsbT

Row | Variant | effect of a mutation on the interaction
4 | MALRKNRGSRMQRNVIAMTEPKSLNSEQYRTIRTNIEFASVDRQMKSVMITSACPGEGKSTTAANLAVVFAQQGKKVLLIAADLRKPTVHTAFFLENTVGLTSVLLKKSSMEQAVQASNEKHLDVLTSGPIPPNPAELLSSKWMKELAYEACAAYDMVIFDTPPILAVADAQILGNVADGSVLVISSGKTEKEQAAKAKEALATCKSKLLGAIMNGKKLSKHSEYGYYGTKDNFMQK [D81A] | increasing interaction strength
